Patent publication US20250283065A1, “TRUNCATED POLYPEPTIDES HAVING PROTEIN LIGASE ACTIVITY AND METHODS OF PRODUCTION THEREOF” (NANYANG TECHNOLOGICAL UNIVERSITY, priority 2022, published 2025)

Experiments:
[1] = system: peptides PIE {EDANS} YNAL and GIK {DABSYL} SIP; assay: FRET ligation kinetics assay; assay type: biochemical
Procedure: Kinetics assay: The kinetic properties of the peptide ligation of the constitutively active PAL were studied using a FRET assay. Two peptides synthesized by GenScript: PIE {EDANS} YNAL (SEQ ID NO:18) and GIK {DABSYL} SIP (SEQ ID NO:19) were mixed at a molar ratio of 1:3. Upon ligation, the peptide PIE {EDANS} YNGIK {DABSYL} SIP (SEQ ID NO: 20) is produced. 50 nM of PAL enzyme is mixed with various concentrations of the peptide mixture. The EDANS fluorescence signal was measured with an excitation wavelength of 336 nm and an emission wavelength of 490 nm. A reduction in EDANS fluorescence signal occurs upon ligation of the two peptides due to quenching by DABSYL. The variation in fluorescence signal for each substrate mixture concentration was measured after addition of the enzyme to initiate the reaction. The rate of decrease in fluorescence signal during the first 30 seconds after enzyme addition was plotted against the substrate concentration to obtain the Vmax, kcat and KM values for each enzyme.
Next, using a FRET ligation assay, the ligase activity of the truncated OaAEP1b-C247A-Δ351 was compared with its acid-activated zymogen counterpart. Briefly, 50 nM of either enzyme was added to a mixture of two peptides A: PIE (EDANS) YNAL (SEQ ID NO:18) and B: GIK (DABSYL) SIP (SEQ ID NO:19). These two peptides were mixed in a A:B molar ratio of 1:3. Upon ligation, the fluorescence signal emission of the EDANS moiety of A (λem=490 nm) becomes quenched by the DABSYL moiety of B. (FIG. 7A). This assay the ligation rate to be followed between both peptides in real-time, giving access to the kinetic parameters of the truncated enzyme.

[2] = system: linear NH2-GLPVSTKPVATRNAL-COOH peptide substrate; assay: Peptide cyclization assay (MALDI-TOF MS); assay type: biochemical; settings: 37° C., after twelve minutes of reaction time
Target sequence (as listed by the source): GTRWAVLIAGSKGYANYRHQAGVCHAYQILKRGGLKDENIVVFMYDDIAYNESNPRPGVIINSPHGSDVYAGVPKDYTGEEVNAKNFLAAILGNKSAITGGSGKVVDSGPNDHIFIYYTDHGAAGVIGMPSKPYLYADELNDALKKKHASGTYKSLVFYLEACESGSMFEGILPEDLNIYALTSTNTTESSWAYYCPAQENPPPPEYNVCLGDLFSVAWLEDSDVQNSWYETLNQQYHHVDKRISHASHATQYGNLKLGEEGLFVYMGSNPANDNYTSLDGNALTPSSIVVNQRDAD
Procedure: Peptide cyclization assay: The peptide used for cyclization assay was purchased commercially from GenScript, NH2-GLPVSTKPVATRNAL-COOH (SEQ ID NO:17). Cyclization assays were performed in 50 μl reaction mixtures containing 20 mM phosphate buffer, pH 6.5, ligases (40 nM) and peptide substrates (20 μM). Reaction was performed at 37° C., for 1 hour. The cyclization product was analyzed by MALDI-TOF MS (ABI 4800 MALDI TOF/TOF).
To evaluate the cyclization activity of the purified OaAEP1b-C247A-Δ351, the enzyme was tested against a linear NH2-GLPVSTKPVATRNAL-COOH (SEQ ID NO:17) peptide substrate (labelled “LS”) (FIG. 6A). The cyclization reaction was performed at 37° C., and samples were collected every two minutes. MALDI-TOF MS was subsequently utilized to detect a cyclized product (labelled “CP”). Successful cyclization carried out by the active ligase of the LS with a mass of 1524 Da would result in CP with a mass of 1321 Da (FIG. 6A). After twelve minutes of reaction time, OaAEP1b-C247A-Δ351 had converted the majority of the linear substrate to the circularized product. No LS peak could be detected compared to a high CP peak detected in the MALDI-TOF mass spectra of the reaction mixture.

[3] = Storage stability of the purified enzyme; assay type: physicochemical; settings: −80° C.
Procedure: Refolding and purification of constitutively active OaAEP1b-C247A-4351 using dialysis method: With all steps performed at 4° C., protein purification was achieved by resuspending thawed pellets in 30 mL of lysis buffer (100 mM Bis-Tris, pH 6.5, 500 mM NaCl, 10% (v/v) glycerol), sonicating the pellets followed by clearing the lysates by centrifugation at 58,000 g for 45 min. The insoluble fraction was resolubilized in 10 mL of resolubilizing buffer (50 mM Bis-Tris, pH 6.5, 150 mM NaCl, 1 mM EDTA, 50 mM Glycine, 8 M urea) overnight, with agitation. The concentration of denatured protein was determined using nanodrop and diluted to ˜2 mg mL-1 with buffer 1 (50 mM Bis-Tris, pH 6.5, 150 mM NaCl, 500 mM L-Arginine, 1 M urea, 0.25 mM L-Glutathione oxidized, 2.5 mM L-Glutathione reduced). The diluted denatured protein was dialyzed against buffer 2 (50 mM Bis-Tris, pH 6.5, 150 mM NaCl, 200 mM L-Arginine, 0.125 mM L-Glutathione oxidized, 1.25 mM L-Glutathione reduced) for 8 hr, followed by two buffer exchanges with buffer 3 (20 mM Bis-Tris, pH 6.5, 150 mM NaCl), for a duration of 8 hr for each buffer exchange. The refolded proteins were purified by affinity chromatography (HisTrap column, Cytiva), followed by size exclusion chromatography (HiLoad 16/600 Superdex 200, Cytiva). The proteins eluted as monomers during size exclusion purification. […]

[4] = 50 nM enzyme, peptides A:B molar ratio 1:3

Chain of peptides PIE {EDANS} YNAL and GIK {DABSYL} SIP (as listed by the source): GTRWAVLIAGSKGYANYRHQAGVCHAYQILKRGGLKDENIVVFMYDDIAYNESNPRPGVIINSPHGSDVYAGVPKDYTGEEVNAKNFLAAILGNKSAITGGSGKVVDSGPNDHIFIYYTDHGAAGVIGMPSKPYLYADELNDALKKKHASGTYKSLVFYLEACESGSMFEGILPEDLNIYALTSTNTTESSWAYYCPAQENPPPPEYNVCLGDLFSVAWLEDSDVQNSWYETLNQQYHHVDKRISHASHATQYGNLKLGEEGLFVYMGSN

B1: OaAEP1b-C247A-Δ351: truncated OaAEP1b-C247A construct, residues 352-474 deleted, D351 as C-terminus; constitutively active peptide asparaginyl ligase (protein)
chain: GTRWAVLIAGSKGYANYRHQAGVCHAYQILKRGGLKDENIVVFMYDDIAYNESNPRPGVIINSPHGSDVYAGVPKDYTGEEVNAKNFLAAILGNKSAITGGSGKVVDSGPNDHIFIYYTDHGAAGVIGMPSKPYLYADELNDALKKKHASGTYKSLVFYLEACESGSMFEGILPEDLNIYALTSTNTTESSWCYYCPAQENPPPPEYNVCLGDLFSVAWLEDSDVQNSWYETLNQQYHHVDKRISHASHATQYGNLKLGEEGLFVYMGSNPANDNYTSLDGNALTPSSIVVNQRDAD
[1]; [4]
  Km: 8.16 µM
  Vmax: 6.40 RFU/see
[1]; FRET ligation assay
  ligation activity relative to acid-activated zymogen counterpart (fold less): about 2 fold
[2]
  cyclization of linear substrate to cyclized product: complete cyclization reaction
[3]
  storage stability: up to two years
